Test results: patent US20220389111A1 (SHANGHAI EPIMAB BIOTHERAPEUTICS, published 2022)

Assays:
[1] = biological target: T1, mouse CD39 protein (recombinant) (mouse, UniProt P55772 38-478, limits assumed); experiment: ELISA on coated mouse CD39 protein
T1 construct: also called muCD39; recombinant purified mouse CD39 protein
T1 sequence (looked up): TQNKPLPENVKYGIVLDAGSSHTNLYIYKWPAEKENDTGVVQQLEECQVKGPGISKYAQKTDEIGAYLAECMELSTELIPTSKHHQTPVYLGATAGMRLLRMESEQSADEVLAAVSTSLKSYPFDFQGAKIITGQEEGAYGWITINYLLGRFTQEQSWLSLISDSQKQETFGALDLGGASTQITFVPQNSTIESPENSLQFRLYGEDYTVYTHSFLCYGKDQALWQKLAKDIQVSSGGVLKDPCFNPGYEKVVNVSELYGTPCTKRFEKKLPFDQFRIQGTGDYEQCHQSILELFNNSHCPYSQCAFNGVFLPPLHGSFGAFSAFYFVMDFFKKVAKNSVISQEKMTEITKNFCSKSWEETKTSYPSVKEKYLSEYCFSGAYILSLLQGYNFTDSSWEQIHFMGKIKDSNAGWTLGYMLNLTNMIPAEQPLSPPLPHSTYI
Method: To determine if anti-CD39 mAbs bind to human CD39, ELISA plates were incubated overnight at 4° C. with human CD39 protein or mouse CD39 protein diluted in PBS, pH7.4 buffer at 1 μg/ml. Plates were washed four times in washing buffer (PBS containing 0.05% Tween 20), and blocked for 1 hour at 37° C. with 200 μl per well blocking buffer (1% BSA in PBS containing 0.05% Tween 20). After blocking buffer was removed, hybridoma supernatant or diluted purified Abs were added to the wells at 100 μl per well and incubated at 37° C. for 1 hour. The wells were washed four times with washing buffer, and anti-mouse HRP (for mouse anti-human CD39 Ab characterization) or anti-rat HRP (for rat anti-mouse CD39 Ab characterization) (Sigma) were 1:5000 diluted and added to the wells at 100 μl per well. The plates were incubated for 1 hour at 37° C. and washed four times in washing buffer. 100 μl of tetramethylbenzidine (TMB) chromogenic solution were added per well. Following color development, the reaction was stopped with 1N HCl, and absorbance at 450 nm was measured. The data were proceeded by GraphPad software.

[2] = biological target: T2, mouse CD39 on CHO-K1 cells (mouse, UniProt P55772 1-510); experiment: FACS on CHO-K1-mouse CD39 cells
T2 construct: whole, on cells; also called CHOK1-muCD39
T2 sequence (looked up): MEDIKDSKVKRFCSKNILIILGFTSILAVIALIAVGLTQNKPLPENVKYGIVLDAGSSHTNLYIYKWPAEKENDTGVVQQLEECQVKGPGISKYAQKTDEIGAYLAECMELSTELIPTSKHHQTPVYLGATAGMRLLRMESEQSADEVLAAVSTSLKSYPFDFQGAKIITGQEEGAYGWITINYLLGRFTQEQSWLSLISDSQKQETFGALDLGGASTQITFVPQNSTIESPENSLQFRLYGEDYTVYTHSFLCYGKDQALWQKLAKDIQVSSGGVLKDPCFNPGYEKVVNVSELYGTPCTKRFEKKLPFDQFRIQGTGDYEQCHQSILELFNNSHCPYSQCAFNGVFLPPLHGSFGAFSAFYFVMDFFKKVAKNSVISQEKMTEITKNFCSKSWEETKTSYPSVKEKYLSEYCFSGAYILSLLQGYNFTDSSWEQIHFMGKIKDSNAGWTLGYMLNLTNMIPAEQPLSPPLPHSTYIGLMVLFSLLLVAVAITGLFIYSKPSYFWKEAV
Method: The ability of the purified antibodies to bind to cell membrane human CD39, cynomolgus monkey CD39, or mouse CD39 was determined by FACS analysis. CHO-K1 cells stably transfected to overexpress human CD39, cynomolgus monkey CD39, or mouse CD39 (CHO-K1-huCD39 cells, CHO-K1-cyCD39 cells, and CHOK1-muCD39 cells) were generated for use in this assay. Briefly, SK-MEL-28 melanoma cells (ATCC) or CD39 overexpressing stable CHO cell lines were resuspended in PBS containing 2% FBS (FACS buffer) and seeded at 1-5×10⁵ cells/well into U-bottomed plates. Anti-CD39 mAbs or isotype control antibodies diluted in FACS buffer were added to the wells and incubated for 1 hour at 4° C. After washing with FACS buffer, 1:1000 diluted Fluorescence-labeled secondary antibody (Life Technologies/ThermoFisher Scientific) were added and incubated for 30 min. at 4° C. Unbound secondary mAb was removed by washing with FACS buffer three times, and the samples were then read on a FACS instrument. The data were processed by GraphPad software.

muCD39-ECD-His = biological target: T3, muCD39-ECD-His (mouse, UniProt P55772 38-477); experiment: SPR (Biacore T200), antibody captured, antigen in solution
T3 construct: also called C-terminally hexahistidine-tagged murine CD39 extracellular domain
T3 chain: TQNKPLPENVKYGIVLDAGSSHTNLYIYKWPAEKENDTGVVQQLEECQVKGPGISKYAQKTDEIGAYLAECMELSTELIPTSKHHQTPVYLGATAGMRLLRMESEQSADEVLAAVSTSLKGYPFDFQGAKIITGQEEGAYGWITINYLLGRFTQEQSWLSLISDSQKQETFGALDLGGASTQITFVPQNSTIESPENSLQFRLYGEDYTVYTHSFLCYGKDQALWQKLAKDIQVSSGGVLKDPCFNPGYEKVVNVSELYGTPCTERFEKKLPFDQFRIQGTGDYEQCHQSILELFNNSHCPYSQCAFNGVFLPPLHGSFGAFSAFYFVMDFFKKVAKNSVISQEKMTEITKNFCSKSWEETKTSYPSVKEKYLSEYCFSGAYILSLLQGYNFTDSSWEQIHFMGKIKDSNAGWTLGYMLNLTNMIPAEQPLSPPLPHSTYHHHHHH
Method: The binding kinetics of purified antibodies was determined by surface plasmon resonance-based measurements using a Biacore T200 instrument (GE Healthcare). Briefly, goat anti-mouse IgG Fc polyclonal antibody (Genway) was directly immobilized across a biosensor chip, and antibody samples were injected over reaction matrices at a flow rate of 5 μl/min. The association and dissociation rate constants, kₒₙ (M⁻¹s⁻¹) and koff(s⁻¹), respectively, were determined by making kinetic binding measurements of anti-CD39 antibody capture at five different concentrations of a recombinant human or mouse CD39 target protein (huCD39-ECD-His or muCD39-ECD-His). The equilibrium dissociation constant KD (M) of the reaction between antibodies and related target proteins was then calculated from the kinetic rate constants using the formula: KD=koff/kₒₙ. Binding affinities for murine anti-human CD39 antibodies mAb635 and mAb638 are shown in Table 9; binding affinity for rat anti-mouse CD39 antibody mAb605 is shown in Table 10.

B1: mAb605 (antibody, V domains shown)
VH: EVQLVESGGGLVQPGRSLKLSCAASGFTFSDNYLAWVRQAPEKGLEWVASISFEGISTYYGDSVKGRFTISKDNARRTLYLQMNSLRSEDTATYYCARRSYGSRAMDAWGQGTSVTVSS
VL: DVVMTQTPVSLPVGLGGQASISCRSSQSLVHSNGNTYLSWYLKRPGQSPQLLIYRVSSRFSGVPDRFSGSGSGTDFTLKISKVVPGDLGHYYCLQTTQYPYTFGAGTKLELK
notes: rat anti-mouse CD39 hybridoma mAb, IgG2a, κ
**Q.** For B1, which EC50 [1] is on record?
**A.** 0.09 nM

**Q.** What about the EC50 [2] of the same binder?
**A.** 2.07 nM

**Q.** And the Kd (muCD39-ECD-His)?
**A.** 0.389 nM

**Q.** And the koff (muCD39-ECD-His)?
**A.** 0.000109 s⁻¹
